Earlier results in article PMC4276913.
pKd: −log10 of the molar value.

Biological target: Ubc13 (Homo sapiens) (UniProt P61088)
Sequence of UniProt P61088 (P61088 whole entry): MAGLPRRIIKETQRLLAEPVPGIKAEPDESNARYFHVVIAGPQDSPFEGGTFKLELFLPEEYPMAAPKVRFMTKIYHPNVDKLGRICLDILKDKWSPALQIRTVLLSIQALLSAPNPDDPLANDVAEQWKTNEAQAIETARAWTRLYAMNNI

## Mms2 (from UniProt Q15819)
  pKd: 7.31
